The text below walks through data of patent US20220402981A1 (Dana-Farber, published 2022).

The target in one experiment is T1, full-length human DCAF15 (human, UniProt Q66K64 1-600).
T1 construct: mature; As in the cryo-EM and cross-linking complexes; also called full-length DCAF15
Nature of the experiment: cryo-EM at ~4.4 Å with E7820.

For another experiment, the target named is T2, DCAF15split (human, UniProt Q66K64 30-264; Q66K64 383-600).
T2 construct: range 30-264;range 383-600; DCAF15 as two fragments in the crystal structures (PDB 6Q0R, 6Q0V, 6Q0W); also called Strep II Avi-DCAF15NTD (residues 30-264)-Strep II Avi-DCAF15CTD (residues 383-600); DCAF15-NTD; not shown: N-terminal Strep II Avi tag
Nature of the experiment: crystal structure with E7820.

B1: His6-RBM39RRM2 (other)
chain: GSAGPMRLYVGSLHFNITEDMLRGIFEPFGRIESIQLMMDSETGRSKGYGFITFSDSECAKKALEQLNGFELAGRPMKVGHVTERTDA
notes: RBM39RRM2 as in the crystals, cryo-EM and cross-linking complexes; not shown: N-terminal His6 tag
As for B1, the binding result with full-length human DCAF15 and with DCAF15split was “binds” each time.
